Data as given in paper PMC3720604.

Target: endogenous CK2β (human (endogenous in HeLa)) (UniProt P67870)
Experiment: co-IP; lysates (200 ug) of HeLa cells transfected with CK2α-HA or CK2α′-HA; consecutive rounds of immunoprecipitation with anti-CK2β sera and protein A sepharose, or mock control; supernatant and immunoprecipitate blotted for HA and CK2β; NP-40 alternative lysis buffer, 150 mM NaCl, 50 mM Tris pH 7.5

Sequence of CK2α′-HA (P19784 whole entry): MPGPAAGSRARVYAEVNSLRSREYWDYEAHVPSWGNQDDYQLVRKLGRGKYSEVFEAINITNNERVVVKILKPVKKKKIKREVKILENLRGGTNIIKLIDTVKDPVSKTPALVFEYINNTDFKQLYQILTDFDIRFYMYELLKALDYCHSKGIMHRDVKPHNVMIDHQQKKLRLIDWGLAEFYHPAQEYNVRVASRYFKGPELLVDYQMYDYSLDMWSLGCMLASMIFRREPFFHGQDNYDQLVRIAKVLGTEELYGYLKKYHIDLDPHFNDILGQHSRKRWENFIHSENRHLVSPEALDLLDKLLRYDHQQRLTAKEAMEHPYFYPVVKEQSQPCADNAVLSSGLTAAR
Sequence of UniProt P67870 (P67870 whole entry): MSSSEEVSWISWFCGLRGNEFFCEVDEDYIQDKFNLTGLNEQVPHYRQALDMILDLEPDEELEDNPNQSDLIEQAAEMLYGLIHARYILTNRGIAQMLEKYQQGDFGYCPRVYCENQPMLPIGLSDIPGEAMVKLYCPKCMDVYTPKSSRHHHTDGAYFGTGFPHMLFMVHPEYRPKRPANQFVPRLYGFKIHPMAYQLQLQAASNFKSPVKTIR

percent depleted from the lysate by CK2β immunoprecipitation: > 90%
Substance: CK2α′-HA (from UniProt P19784 1-350) (enzyme)
